# Reference: article PMC4589357, “The Role of Electrostatic Interactions in Binding of Histone H3K4me2/3 to the Sgf29 Tandem Tudor Domain” (PLoS ONE, 2015)
# No end group written: not given here. Me3 = trimethyl (on lysine, trimethyllysine)
# T1: Sgf29 D266W variant, residues 115-293 (human, UniProt Q96ES7 115-293, D266W)
# T1 construct: source: E. coli Rosetta BL21 DE3 PlysS, purified (Ni-NTA, TEV cleavage, SEC Superdex 75)
# T1 sequence (looked up): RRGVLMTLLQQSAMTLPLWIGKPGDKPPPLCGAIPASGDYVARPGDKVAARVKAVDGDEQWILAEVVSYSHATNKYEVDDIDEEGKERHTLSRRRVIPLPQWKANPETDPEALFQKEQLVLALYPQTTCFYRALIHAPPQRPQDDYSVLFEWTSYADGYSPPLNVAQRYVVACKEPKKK
# T2: Sgf29 D266A variant, residues 115-293 (human, UniProt Q96ES7 115-293, D266A)
# T2 construct: source: E. coli Rosetta BL21 DE3 PlysS, purified (Ni-NTA, TEV cleavage, SEC Superdex 75)
# T2 sequence (looked up): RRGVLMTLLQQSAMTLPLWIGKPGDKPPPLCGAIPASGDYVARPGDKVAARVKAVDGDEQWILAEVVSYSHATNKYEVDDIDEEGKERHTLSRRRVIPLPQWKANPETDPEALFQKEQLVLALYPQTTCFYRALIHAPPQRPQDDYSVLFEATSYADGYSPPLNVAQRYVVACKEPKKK
# T3: Sgf29 D266N variant, residues 115-293 (human, UniProt Q96ES7 115-293, D266N)
# T3 construct: source: E. coli Rosetta BL21 DE3 PlysS, purified (Ni-NTA, TEV cleavage, SEC Superdex 75)
# T3 sequence (looked up): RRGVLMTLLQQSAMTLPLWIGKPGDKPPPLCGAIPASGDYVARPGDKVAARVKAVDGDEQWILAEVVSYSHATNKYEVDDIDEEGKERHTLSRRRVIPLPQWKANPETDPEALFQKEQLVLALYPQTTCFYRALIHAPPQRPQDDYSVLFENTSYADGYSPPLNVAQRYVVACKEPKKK
# T4: Sgf29 D266E variant, residues 115-293 (human, UniProt Q96ES7 115-293, D266E)
# T4 construct: source: E. coli Rosetta BL21 DE3 PlysS, purified (Ni-NTA, TEV cleavage, SEC Superdex 75)
# T4 sequence (looked up): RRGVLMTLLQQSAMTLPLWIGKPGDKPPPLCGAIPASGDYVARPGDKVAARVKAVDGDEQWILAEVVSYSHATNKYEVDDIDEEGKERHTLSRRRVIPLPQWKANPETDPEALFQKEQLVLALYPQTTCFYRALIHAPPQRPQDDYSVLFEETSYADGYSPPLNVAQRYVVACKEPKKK
# T5: Sgf29 Y238F variant, residues 115-293 (human, UniProt Q96ES7 115-293, Y238F)
# T5 construct: source: E. coli Rosetta BL21 DE3 PlysS, purified (Ni-NTA, TEV cleavage, SEC Superdex 75)
# T5 sequence (looked up): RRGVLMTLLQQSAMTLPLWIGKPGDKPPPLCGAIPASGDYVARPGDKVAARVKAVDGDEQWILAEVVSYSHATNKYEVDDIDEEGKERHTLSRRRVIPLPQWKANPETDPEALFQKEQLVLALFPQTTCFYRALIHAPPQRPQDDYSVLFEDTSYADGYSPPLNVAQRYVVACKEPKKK
# T6: Sgf29 D266Y variant, residues 115-293 (human, UniProt Q96ES7 115-293, D266Y)
# T6 construct: source: E. coli Rosetta BL21 DE3 PlysS, purified (Ni-NTA, TEV cleavage, SEC Superdex 75)
# T6 sequence (looked up): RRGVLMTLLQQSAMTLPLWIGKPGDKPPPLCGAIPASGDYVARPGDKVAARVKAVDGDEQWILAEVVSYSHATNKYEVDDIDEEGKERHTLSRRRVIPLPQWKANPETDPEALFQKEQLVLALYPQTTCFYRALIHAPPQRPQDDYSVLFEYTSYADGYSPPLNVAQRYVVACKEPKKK
# T7: Sgf29 D266F variant, residues 115-293 (human, UniProt Q96ES7 115-293, D266F)
# T7 construct: source: E. coli Rosetta BL21 DE3 PlysS, purified (Ni-NTA, TEV cleavage, SEC Superdex 75)
# T7 sequence (looked up): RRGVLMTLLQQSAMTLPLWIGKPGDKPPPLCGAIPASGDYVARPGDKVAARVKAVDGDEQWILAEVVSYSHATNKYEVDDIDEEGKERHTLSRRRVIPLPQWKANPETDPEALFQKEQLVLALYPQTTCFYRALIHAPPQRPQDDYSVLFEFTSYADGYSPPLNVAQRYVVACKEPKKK
# T8: Wild-type Sgf29 (SAGA-associated Factor 29) tandem tudor domain, residues 115-293 (human, UniProt Q96ES7 115-293)
# T8 construct: also called WT Sgf29; WT; source: E. coli Rosetta BL21 DE3 PlysS, purified (Ni-NTA, TEV cleavage, SEC Superdex 75)
# T8 sequence (looked up): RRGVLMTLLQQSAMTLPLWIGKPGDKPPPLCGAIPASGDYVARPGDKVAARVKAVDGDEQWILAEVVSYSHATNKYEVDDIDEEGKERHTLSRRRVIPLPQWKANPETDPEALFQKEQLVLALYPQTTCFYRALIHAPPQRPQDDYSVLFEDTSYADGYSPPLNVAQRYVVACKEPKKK
# T9: Sgf29 Y245F variant, residues 115-293 (human, UniProt Q96ES7 115-293, Y245F)
# T9 construct: source: E. coli Rosetta BL21 DE3 PlysS, purified (Ni-NTA, TEV cleavage, SEC Superdex 75)
# T9 sequence (looked up): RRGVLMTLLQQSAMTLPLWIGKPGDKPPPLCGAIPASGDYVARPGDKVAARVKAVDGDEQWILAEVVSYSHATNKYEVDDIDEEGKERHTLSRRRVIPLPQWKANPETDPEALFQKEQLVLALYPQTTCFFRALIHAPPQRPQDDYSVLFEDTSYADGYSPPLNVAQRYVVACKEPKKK
# What was measured:
# Experiment in all cases: ITC; peptide (generally 1.2 mM) titrated to protein (100 uM); for variants of low affinity 2.4 mM peptide to 200 uM protein; 25 mM TRIS pH 8.0, 50 mM NaCl, 1 mM DTT; one-site model
# Details in all cases: both partners purified
# [1] = target: T1, Sgf29 D266W variant, residues 115-293
# [2] = target: T2, Sgf29 D266A variant, residues 115-293
# [3] = target: T3, Sgf29 D266N variant, residues 115-293
# [4] = target: T4, Sgf29 D266E variant, residues 115-293
# [5] = target: T5, Sgf29 Y238F variant, residues 115-293
# [6] = target: T6, Sgf29 D266Y variant, residues 115-293
# [7] = target: T7, Sgf29 D266F variant, residues 115-293
# [8] = target: T8, Wild-type Sgf29 (SAGA-associated Factor …)
# [9] = target: T9, Sgf29 Y245F variant, residues 115-293
binder,measurement,setting,value
"ARTK(Me3)QTARKS-OH (histone H3 N-terminal tail, 10-mer, K4 trimethylated; also called native 10-mer peptide; source: synthetic peptide (manual Fmoc solid-phase synthesis, preparative HPLC)) [10-mer histone 3 peptide H3K4me3 (ARTKme3QTARKS)]",Kd,[1],> 200 µM
same,Kd,[2],25 µM
same,dH,[2],-26.8 kJ/mol
same,Kd,[3],25 µM
same,dH,[3],-25.9 kJ/mol
same,Kd,[4],3.9 µM
same,dH,[4],-37.7 kJ/mol
same,Kd,[5],3.5 µM
same,dH,[5],-33.9 kJ/mol
same,Kd,[6],28 µM
same,dH,[6],-20.1 kJ/mol
same,Kd,[7],44 µM
same,dH,[7],-14.2 kJ/mol
same,Kd,[8],3.1 µM
same,dH,[8],-33.9 kJ/mol
same,Kd,[9],14 µM
same,dH,[9],-24.7 kJ/mol
